From publication PMC3020742 (The Journal of Biological Chemistry, 2010)

Experiments:
[1] = target: the molecule itself; assay: SEC
[2] = target: MyD88 S34Y DD-ID (residues 1-156), Protein A-tagged (LUMIER) (human, UniProt Q99836 1-156, S34Y); assay: LUMIER
[3] = target: MyD88 R98C DD-ID (residues 1-156), Protein A-tagged (LUMIER) (human, UniProt Q99836 1-156, R98C); assay: LUMIER
MyD88 R98C DD-ID (residues 1-156), Protein A-tagged (LUMIER), sequence (Q99836 1-156 R98C): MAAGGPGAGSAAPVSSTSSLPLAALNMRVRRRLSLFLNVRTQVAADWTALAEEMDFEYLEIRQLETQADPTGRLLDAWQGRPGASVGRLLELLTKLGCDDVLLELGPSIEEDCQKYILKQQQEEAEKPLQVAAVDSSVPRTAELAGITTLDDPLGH

MyD88 S34Y DD-ID (residues 1-156), Protein A-tagged (LUMIER), sequence (Q99836 1-156 S34Y): as the sequence (Q99836 1-156 R98C) above, with S34Y, C98R counted along it

Row | Binder | stoichiometry N [1] | fold reduction of binding against WT DD [2] [fold] | fold reduction of binding against WT DD [3] [fold]
1 | MyD88 R98C DD, purified from bacteria (domain or fragment) SLPLAALNMRVRRRLSLFLNVRTQVAADWTALAEEMDFEYLEIRQLETQADPTGRLLDAWQGRPGASVGRLLELLTKLGCDDVLLELGPSI | 2 | – | –
2 | Renilla luciferase-tagged IRAK4 DD (residues 1-106) (domain or fragment) MNKPITPSTYVRCLNVGLIRKLSDFIDPQEGWKKLAVAIKKPSGDDRYNQFHIRRFEALLQTGKSPTSELLFDWGTTNCTVGDLVDLLIQNEFFAPASLLLPDAVP | – | > 10 | > 10
